Data reported in US20150268247A1, “Assay for Screening of Anti-Viral Compounds That Inhibit Specific Interaction Interfaces Between Cullin5 and an ElonginB/ElonginC/ CBF-beta/HIV-1 Vif Complex” (UNIVERSITY OF ROCHESTER, priority 2012, published 2015).

Tests used:
[1] = target: T1, Vif/EloB/C/CBFβ quaternary complex (full-length HIV-1 HXB2 Vif(1-192) / ElonginB 1-118 / ElonginC 17 (HIV-1 HXB2; human), P69720; experiment: fluorescence anisotropy, complex titrated into 25 nM 5-FAM peptide; Sd ± 4.2
[2] = target: T1, Vif/EloB/C/CBFβ quaternary complex …; experiment: fluorescence anisotropy, complex titrated into 25 nM 5-FAM peptide; Sd ± 0.1
[3] = target: T1, Vif/EloB/C/CBFβ quaternary complex …; experiment: fluorescence anisotropy, complex titrated into 25 nM 5-FAM peptide; Sd ± 1.0
[4] = target: T1, Vif/EloB/C/CBFβ quaternary complex …; experiment: fluorescence anisotropy, complex titrated into 25 nM 5-FAM peptide; Sd ± 7.0

For KQQWFDLFSDVH (modifications not checked) [Cul5(37-48) peptide], the Kd [1] was 15.6 µM.

Work on KQQWFDLFSDVHAVCLW (modifications not checked) [Cul5(37-53) peptide] yielded a Kd [2] of 1.2 µM.

LFSDVHAVCLWDDKGPAKIHQAL (modifications not checked) [Cul5(43-65) peptide] was tested, and the Kd [3] was 4.7 µM.

Work on LFSDVHAVCLWD (modifications not checked) [Cul5(43-54) peptide] yielded a Kd [2] of 2.5 µM.

With LRQESVTKQQW (modifications not checked) [Cul5(30-40) peptide] the Kd [4] was 16 µM.
